Experimental data taken from patent US10508139B2, “Compound, use, anti-tumor pharmaceutical composition, gene construct for polypeptide expression, process for the production, process for the evaluation of tumor cells, method of sensitization of tumor cells to chemotherapeutic” (União Brasileira de Educaçâo e Assistência, mantendedora da …, priority 2012, dated 2019).

Legend:
[1] = system: B16F10 cells; test: Tumor growth of B16F10 cells transiently transfected with murine HspBP1 or HspBP1 (1-136); format: in vivo, mice; conditions: subcutaneous, monitored for 20 days
Description: Working with the possibility that human HspBP1 protein is recognized by the mouse immune system and that this is the reason for the tumor growth reduction, we decided to repeat the experiments using murine HspBP1. The B16F10 cells were transiently transfected with plasmid containing the sequence encoding the murine HspBP1 or […] as a control, and these cells were injected subcutaneously in the mouse thigh. Tumor growth was monitored for 20 days by measuring the volume of the thigh using a digital caliper.
B16F10 cells (5×10^5) were transiently transfected with pcDNA4/TO plasmid alone or containing the sequence encoding HspBP1 and HspBP1 (1-136) protein and, after 24 h, were injected subcutaneously into mice. A)—Quantification of tumor growth inhibition by HspBP1 after 20 days of tumor growth (Mann-Whitney test, p<0.05). B)—Tumor-bearing mice were photographed after 20 days of tumor growth. C)—Western blot analysis showing in vitro HspBP1 and truncated HspBP1 (1-136) expression on transfected cells.

[2] = molecular target: T1, Hsp70 on the surface of the cells (Mus musculus, UniProt Q61696); test: Binding to B16F10 cells analyzed by flow cytometry; parameters: species or system murine; conditions: B16F10 cells labeled 2 hours on ice
T1 construct: endogenous in cells; host or cells: B16F10 murine melanoma cells
T1 sequence (Q61696 whole entry): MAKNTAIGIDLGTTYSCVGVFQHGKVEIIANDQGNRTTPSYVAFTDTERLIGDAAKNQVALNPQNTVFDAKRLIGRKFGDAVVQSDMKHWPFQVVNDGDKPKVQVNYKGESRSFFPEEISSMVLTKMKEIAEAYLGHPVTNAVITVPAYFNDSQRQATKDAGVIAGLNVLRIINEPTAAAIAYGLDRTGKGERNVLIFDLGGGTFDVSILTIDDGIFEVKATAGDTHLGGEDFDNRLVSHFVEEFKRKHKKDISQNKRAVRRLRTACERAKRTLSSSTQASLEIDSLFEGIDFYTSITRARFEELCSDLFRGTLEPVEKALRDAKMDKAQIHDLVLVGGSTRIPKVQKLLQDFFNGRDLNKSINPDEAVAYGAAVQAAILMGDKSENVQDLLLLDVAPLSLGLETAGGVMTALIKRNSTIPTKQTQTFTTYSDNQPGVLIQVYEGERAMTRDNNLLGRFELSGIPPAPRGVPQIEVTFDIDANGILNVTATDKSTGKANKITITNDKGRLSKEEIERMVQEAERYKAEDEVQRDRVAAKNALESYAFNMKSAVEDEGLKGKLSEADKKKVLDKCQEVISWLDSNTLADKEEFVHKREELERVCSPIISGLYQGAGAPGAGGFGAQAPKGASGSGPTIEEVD
From the text: Studies have shown that Hsp70 and HspBP1 can be secreted by tumor cells (Evdonin et al., 2009) and it is well established that Hsp70 is present in human serum (Pockley et al., 1998). Our laboratory has shown that breast cancer patients had twice the HspBP1 level in their serum compared to tumor-free individuals. Furthermore, breast tumors contained HspBP1 (and Hsp70) levels that were 4 times higher than the normal adjacent tissue (Souza et al., 2009).
Fc receptors were blocked using […], then the cells were labeled for 2 hours on ice with HspBP1 (FL) or HspBP1 (1-136). Cells were acquired on FACS Canto II cytometer (BD bioscience), and the data were analyzed using the FlowJo software (TreeStar).

[3] = system: activated caspase 3; test: Ex vivo activated caspase 3 Western blot of treated tumors; format: in vivo, mice; conditions: tumor removed 24 hours after treatment, OVA control
Description: We performed ex vivo tests to verify that HspBP1 treatment could activate caspase 3 in melanoma. 8×10^5 cells/animals were injected and after 3 days they were treated with HspBP1 FL, HspBP1 (1-136) or OVA. After 24 hours, the tumor was removed and analyzed for activated caspase 3 by Western blot (FIG. 5).
The 17 kDa band represents the marking of activated caspase 3.

[4] = system: B16F10 cells; test: Survival of transfected B16F10 cells after heat shock; format: cell-based, murine; conditions: overexpression in B16F10 cells, heat shock 42° C. for 1 h
Description: When Hsp70 is silenced in B16F10 cells using siRNA and when we submit the cells to heat shock, there is a reduction in the number of viable cells in vitro (FIG. 3).
B—Western blot analysis of Hsp70 and actin expression in B16F10 cells, after silencing Hsp70 with siRNA. Cells were treated with control siRNA (lane 1) or Hsp70 siRNA (lane 2) and subsequently heat shocked at 42° C. for 2 hours, followed by a recovery of 37° C. for 4 h. C—Survival of B16F10 cells transiently transfected with pcDNA4/TO plasmid containing the murine HspBP1 sequence or pcDNA4/TO plasmid having murine HspBP1 (1-136) sequence; with or without heat shock at 42° C. for 1 h.

[5] = system: B16F10 cells; test: Sensitization of B16F10 cells to hydrogen peroxide-induced death (MTT, annexin/propidium iodide); format: cell-based, murine; conditions: HspBP1 for 2 h, then hydrogen peroxide; MTT after 24 h or annexin/propidium iodide after 12 h
Description: Since Hsp70 protects against death induced by oxidative stress—such as, for example, that induced in the treatment with hydrogen peroxide, we hypothesized that HspBP1 will sensitize tumors to death by oxidative stress, thereby enabling a tumor cell sensitization method to chemotherapeutic agents. HspBP1 was added at different concentrations with B16F10 cells cultured for 2h and then hydrogen peroxide was added. After 24 h and 12 h viability was assessed using MTT or by annexin and propidium iodide labeling to assess apoptotic cells. […] Viability was assessed using MTT after 24 hours (A) or by annexin and propidium iodide labeling after 12 h (B).

[6] = system: draining lymph nodes; test: Draining lymph node analysis of tumors over-expressing HspBP1 (flow cytometry); format: in vivo, mice; conditions: 25 days of tumor growth
Description: Furthermore, activation of dendritic cells and the number of CD4 and CD8 T cells in draining lymph nodes of tumor-bearing mice transiently over-expressing HspBP1 was evaluated. […] A—Number of CD4+ or CD8+ T cells in draining lymph nodes. B—Number of CD11c+CD86+MHCII+ cells. C—Dot plot graph showing the frequency of CD11c+, CD86 +MHC-II+ dendritic cells.

[7] = system: B16F10 cells; test: Chemo-sensitization of B16F10 cells to cisplatin (MTT); format: cell-based, murine; conditions: HspBP1 for 2 h, then cisplatin 160 ug/ml, 14 h
Description: (§1) It was also assessed whether HspBP1 may enhance the effect of chemotherapeutic agents already used in clinical practice. The B16F10 cells were plated at a concentration of 4×10^3 cells per well in a 96 well plate in 200 ul 10% DMEM medium. After 24 h, HspBP1 was added at different concentrations in AIM-V medium, and cells were incubated for 2 h; then cisplatin was added at a concentration of 160 ug/ml. After 14 h cell viability was assessed using MTT.
as §1, with “The” for “It was also assessed whether HspBP1 may enhance the effect of chemotherapeutic agents already used in clinical practice. The”, “14 h,” for “14 h”

[8] = system: B16F10 cells; test: Intratumoral injection of recombinant protein in melanoma-bearing mice; format: in vivo; conditions: 40 ug intratumorally on days 3 and 6, monitored for 16 days, BSA control
Description: The recombinant form of the non-natural 1-136 peptide was produced. Then melanoma-bearing mice were treated with whole protein (FL) or only with said peptide. […] 3 and 6 days later, 40 ug HspBP1, BSA or truncated HspBP1 were intratumorally injected in 100 uL PBS. Tumor growth was monitored for 16 days. Tumor sizes were measured using a caliper. Tumor volume (V) (mm3) was calculated using V=d2×D×0.5, wherein d=smaller diameter and D=larger diameter.

[9] = system: B16F10 cells; test: Growth of HspBP1-overexpressing B16F10 tumors in WT and RAG-/- mice; format: in vivo; conditions: for tumor size vs vector control: 25 days of tumor growth
Description: One possibility is that the host immune system plays a role in in vivo tumor growth inhibition mediated by HspBP1. A comparison between wild WT mice (C57BL6/c) and immunodeficient mice (RAG−/−) was used to further explore the involvement of the immune system in tumor regression mediated by HspBP1 overexpression in B16F10 cells (FIG. 10).
Tumor volume (mm3) was measured after 25 days of tumor growth (Mann-Whitney test, p <0.05).

[10] = molecular target: Hsp70 ATPase activity (Homo sapiens, UniProt P0DMV8); conditions: according to Raynes et al. (2003); cited from earlier work
Sequence of Hsp70 ATPase activity (P0DMV8 whole entry): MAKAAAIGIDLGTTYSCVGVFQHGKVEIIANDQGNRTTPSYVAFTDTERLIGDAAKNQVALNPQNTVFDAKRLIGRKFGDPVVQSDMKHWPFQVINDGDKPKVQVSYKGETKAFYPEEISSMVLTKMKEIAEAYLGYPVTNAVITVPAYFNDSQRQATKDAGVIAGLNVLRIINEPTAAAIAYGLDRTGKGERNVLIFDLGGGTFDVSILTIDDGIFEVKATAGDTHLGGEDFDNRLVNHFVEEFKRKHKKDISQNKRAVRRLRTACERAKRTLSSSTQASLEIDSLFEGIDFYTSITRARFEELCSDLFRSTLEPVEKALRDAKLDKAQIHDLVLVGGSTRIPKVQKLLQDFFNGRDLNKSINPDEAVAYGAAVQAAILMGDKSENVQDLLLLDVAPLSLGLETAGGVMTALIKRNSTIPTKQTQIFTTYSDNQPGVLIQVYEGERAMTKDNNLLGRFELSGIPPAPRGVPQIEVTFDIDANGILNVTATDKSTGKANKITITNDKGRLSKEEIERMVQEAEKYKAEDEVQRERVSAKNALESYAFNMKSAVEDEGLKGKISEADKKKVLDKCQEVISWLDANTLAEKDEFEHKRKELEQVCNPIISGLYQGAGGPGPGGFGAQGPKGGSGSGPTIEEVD

[11] = system: tumor; test: Intravenous injections in tumor bearing mice; format: in vivo; conditions: circulating levels increased through intravenous injections
From the text: The invention therefore additionally provides a new in vivo experimental model for the development of new anti-tumor agents.

[12] = system: GL, glioma cell line; test: Apoptosis in GL glioma cell line (Annexin V/iodide flow cytometry); format: cell-based; conditions: 10 or 20 ug for 24 hours, albumin control
Description: In vitro assays were performed to verify whether HspBP1 could induce cell death in GL, glioma cell line. 5×10^5 cells were seeded per well in a 24 well plate. Then, cells were incubated with 10 or 20 ug HspBP1 or albumin for 24 hours in DMEM containing 1% fetal bovine serum. After 24 hours, the samples were analyzed by flow cytometry using the Annexin V/iodide kit (BD).

[13] = system: B16F10 cells; test: Single HspBP1 treatment of B16F10 cells in culture; format: cell-based, murine; conditions: no added stressor
[14] = system: B16F10 cells; test: Tetracycline-induced human HspBP1 overexpression in B16F10 tumors in mice; format: in vivo
From the text: As part of the experimental strategy, a gene construct was designed and implemented for the Hsp70 binder expression, said construct being particularly useful for gene therapy for the treatment of mammalian tumors. Said gene construct comprises: • a sequence encoding a Hsp70 binding polypeptide; • a promoter sequence operatively linked to said encoding sequence; • said promoter and coding sequences being present on a vector or functional plasmid for expression of said polypeptide in prokaryotic or eukaryotic cells. In this context, a system was developed in which HspBP1 expression was regulated by the presence of tetracycline. B16F10 cells were stably transfected with pcDNA6/TR plasmid, the transfected clones were selected using antibiotic and then the cells were transfected with a plasmid containing the sequence encoding human HspBP1, or empty vector as a control. The HspBP1 increased expression was verified by adding tetracycline to the culture medium. […]
The B16F10 cells were stably transfected with pcDNA6/TR and pcDNA4/TO plasmids with or without the human HspBP1 sequence. […] Quantification of tumor growth inhibition by HspBP1 (Mann-Whitney test, /d/p<0.05). Tumor volume (V) was calculated using V=d2×D×0.5, where d=smaller diameter and D=larger diameter.

murine HspBP1: murine HspBP1 expressed in B16F10 cells from pcDNA4/TO plasmid; 94% identical to human form
tumor growth [1]: inhibits tumor growth

B1: truncated HspBP1: non-natural peptide corresponding to amino acids 1-136 of HspBP1 (protein)
chain: MADKGSGGSRLPLALPPASQGCSSGGSGSSAGGSGNPRPPRNLQGLLQMAITAGSQEPDPPPEPMSEERRQWLQEAMSAAFRGQREEVEQMKNCLRVLSQATPAMAGEAELATDQQEREGALELLADLCENMDNAA
binding to the extracellular surface of tumor cells [2]: can bind to the extracellular surface of tumor cells
tumor growth [1]: also inhibits tumor growth
apoptosis in vivo (activated caspase 3) [3]: inhibits tumor growth by inducing apoptosis in vivo
cell survival after heat shock [4]: no changes occur in vitro

B2: HspBP1: Hsp70 binding co-chaperone protein, SEQ ID No: 1; species of the protein not always stated (protein, listed as Mus musculus)
chain: MADKGSGGSRLPLALPPASQGCSSGGSGSSAGGSGNPRPPRNLQGLLQMAITAGSQEPDPPPEPMSEERRQWLQEAMSAAFRGQREEVEQMKNCLRVLSQATPAMAGEAELATDQQEREGALELLADLCENMDNAA
death induced by oxidative stress [5]: enhances death induced by oxidative stress
T cell frequency in the draining lymph nodes ([6]; CD4 and CD8 T cells): no difference in T cell frequency
activation of dendritic cells in the lymph node ([6]; CD11c+CD86+MHCII+ cells): trend in the activation of dendritic cells
binding to the extracellular surface of tumor cells [2]: can bind to the extracellular surface of tumor cells
effect on cisplatin-induced death (cell viability, MTT) [7]: enhances the effect of cisplatin death
tumor growth [8]: Reduces Tumor Growth
tumor size vs vector control ([9]; RAG -/- mice): tendency to be smaller than tumors transfected with vector alone, although the difference was not significant
tumor size vs vector control ([9]; WT mice (C57BL6/c)): significantly smaller than tumors transfected only with the vector as a control
tumor size, WT vs RAG -/- mice ([9]; tumors expressing HspBP1): significantly smaller in WT than in RAG −/− mice
cell survival after heat shock [4]: no changes occur in vitro
HspBP1/Hsp70 molar ratio resulting in 50% inhibition of Hsp70 ATPase activity [10]: 4.0
tumor growth [11]: tumor growth was reduced
frequency of apoptotic cells [12]: increase in the frequency of apoptotic cells
anti-tumor effect in culture [13]: lack of an anti-tumor effect

B3: human HspBP1: human HspBP1 expressed in B16F10 cells from a tetracycline-regulated plasmid (protein, UniProt Q9NZL4 1-359, looked up)
Hsp70-binding protein 1: MSDEGSRGSRLPLALPPASQGCSSGGGGGGSSAGGSGNSRPPRNLQGLLQMAITAGSEEPDPPPEPMSEERRQWLQEAMSAAFRGQREEVEQMKSCLRVLSQPMPPTAGEAEQAADQQEREGALELLADLCENMDNAADFCQLSGMHLLVGRYLEAGAAGLRWRAAQLIGTCSQNVAAIQEQVLGLGALRKLLRLLDRDACDTVRVKALFAISCLVREQEAGLLQFLRLDGFSVLMRAMQQQVQKLKVKSAFLLQNLLVGHPEHKGTLCSMGMVQQLVALVRTEHSPFHEHVLGALCSLVTDFPQGVRECREPELGLEELLRHRCQLLQQHEEYQEELEFCEKLLQTCFSSPADDSMDR
average tumor volume ([14]; B16F10 stably transfected, injected subcutaneously into thigh of mice, tetracycline in drinking water, control tumors 46.9 mm^3): 2.07 mm^3
tumor growth ([14]; induced human HspBP1 overexpression vs mice without tetracycline): clearly reduced
